The values below come from the supplement of paper PMC10567573.

The series in a line: protein stability index of a GFP-peptide fusion (GPS, HEK-293T) (PSI 1-6); higher = more stable.
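Also: lentivirally expressed fusions sorted by FACS into six bins by GFP to DsRed ratio, PSI derived from sequencing read proportions per bin multiplied by bin number.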

On to FQFASIDVAGNLDYKALSYVITHG, for which, where the note is “parent: IOH44370_25, c terminus: a fixed tail appended”, the protein stability index was 2.42.

Take QVPVVDFQAELRQAFLAETPRGG [SNURF WT]: under “parent: IOH45840_9, c terminus: native”, the protein stability index was 2.99.

For EEAEELAKEMSVPFYTSRIDEVLL, the protein stability index (parent: IOH42390_7, c terminus: a fixed tail appended) amounted to 3.76.

With FTSGFNAAALDYEADGSTNNGIFQ [SPACA3 WT], the protein stability index (parent: IOH42995_21, c terminus: a fixed tail appended) turned out to be 1.89.

Regarding ASSVESTLPVLEASSWKKQVSHDF, under “parent: IOH41760_90, c terminus: a fixed tail appended”, the protein stability index was found to be 3.

On to YTFGSNQHGQLGTNTRRGSRAPCK, for which the protein stability index (parent: IOH45357_98, c terminus: a fixed tail appended) was found to be 3.79.

Consider VVGTPCYISPELCEGKPYNQKSDI, for which the protein stability index (parent: IOH45357_28, c terminus: a fixed tail appended) was 2.69.

In the case of DLNSKGKKREFRFHPIKETVVEEP, the protein stability index (parent: IOH41890_91, c terminus: a fixed tail appended) amounted to 2.23.

In the case of EEITEESLEESVGKPLYLIFRNLC, for the setting “parent: IOH41890_107, c terminus: a fixed tail appended”, the protein stability index was 2.68.

Take PRYREDPCKQCKKKYVKGDVSLCR: the protein stability index (parent: IOH41760_105, c terminus: a fixed tail appended) was 2.57.

Regarding FYRLYQDLETHRLPCTSRCPRPCR, the protein stability index (parent: IOH42569_73, c terminus: a fixed tail appended) came out at 2.21.

For the protein YSAYIRRCACAASSDESPGSKCSP [TTC32 WT], under “parent: IOH43157_6, c terminus: a fixed tail appended”, the protein stability index was determined as 1.99.

Regarding TKEKKHQCDHCERCFYTRKDVRRH, the protein stability index (parent: IOH42591_26, c terminus: a fixed tail appended) was found to be 3.45.

Take CKDFLCQFCAQRFGRKDHLTRHTK: the protein stability index (parent: IOH42591_31, c terminus: a fixed tail appended) was found to be 2.02.

Regarding SDDFCTFQMVLEGGVCCTVTLNFN, the protein stability index (parent: IOH42390_37, c terminus: a fixed tail appended) was 3.15.

For the protein DYFPSEDFYRCGYCKNESGSRSNG, under “parent: IOH45551_3, c terminus: a fixed tail appended”, the protein stability index came to 2.1.

On to AQLQALRQKEVDFCISLLRERFME, for which the protein stability index (parent: IOH41890_38, c terminus: a fixed tail appended) is 2.31.

Consider IRVMVHGRNHTPFLGHHSFSVRPG, for which, for the setting “parent: IOH42569_55, c terminus: a fixed tail appended”, the protein stability index was 2.25.

Regarding YQQIKAGAYDFPSPEWDTVTPEAK [CAMK2B WT], the protein stability index (parent: IOH45432_38, c terminus: a fixed tail appended) is 3.58.

DVPDLQSVCSCTCYRSQDYGGRSV: the protein stability index (parent: IOH45737_49, c terminus: a fixed tail appended) was found to be 1.8.

For YAHQPRTADEIPMEPGDIIGVAGN, the protein stability index (parent: IOH44218_86, c terminus: a fixed tail appended) is 4.04.

As for FHPIKETVVEEPVDITPYLDQLDE, the protein stability index (parent: IOH41890_93, c terminus: a fixed tail appended) was found to be 3.32.

With YPSYKVREKIETVKYPTYPEAEK, the protein stability index (parent: IOH44218_94, c terminus: native) came to 4.2.

Consider AKREETKAMESQRAYRFVQGKDWG, for which, where the note is “parent: IOH45687_19, c terminus: a fixed tail appended”, the protein stability index worked out at 2.71.

For the protein KKREFRFHPIKETVVEEPVDITPY, the protein stability index (parent: IOH41890_92, c terminus: a fixed tail appended) was 1.94.

As for YPPLEGHVRQGVFSSLNHIVEKRV, the protein stability index (parent: IOH41890_75, c terminus: a fixed tail appended) is 2.53.

In the case of DRKLHSRPRKLYKHSSTSSRIAKG, the protein stability index (parent: IOH43395_4, c terminus: a fixed tail appended) was determined as 3.86.

Regarding FQGSMRIFTKKLPHPDLPAEEKEQ, for the setting “parent: IOH45672_59, c terminus: a fixed tail appended”, the protein stability index is 2.02.

Consider VTIKHVACGDFFTACLTDRGIIMT, for which, under “parent: IOH45357_66, c terminus: a fixed tail appended”, the protein stability index amounted to 2.6.

In the case of FVEKNPTIVNFPITNVDLREYLSE, for the setting “parent: IOH45672_78, c terminus: a fixed tail appended”, the protein stability index was found to be 1.94.

On to RRPSPVLRHLELLDEFARENIDSL, for which the protein stability index (parent: IOH42569_24, c terminus: a fixed tail appended) is 2.6.

Regarding LCKDCQVIDGRNVTVTDVDIVFSK [TPPP WT], for the setting “parent: IOH43477_14, c terminus: a fixed tail appended”, the protein stability index came to 2.25.

Take TLSEAYIQIWKRRDNDETNQQGA: the protein stability index (parent: IOH45672_93, c terminus: native) worked out at 2.22.

Turning to YGSFHQQYWLDGKIIAVGVIDILP, the protein stability index (parent: IOH45551_57, c terminus: a fixed tail appended) came out at 2.33.

Regarding YPCLEKPRIWSLAHTATASAVEGA [IRX6 WT], the protein stability index (parent: IOH43040_58, c terminus: a fixed tail appended) was found to be 2.44.

With FLGHHSFSVRPGTEATISIREDEV, for the setting “parent: IOH42569_57, c terminus: a fixed tail appended”, the protein stability index was found to be 1.72.

With FHLAPARAGHHPNQYATCRLCGRQ [ZBED2 WT], for the setting “parent: IOH45853_11, c terminus: a fixed tail appended”, the protein stability index was 1.84.

In the case of FVYENAKEGARNIRTSERVTLIVD, the protein stability index (parent: IOH43395_26, c terminus: a fixed tail appended) worked out at 1.94.

Turning to CFITLTTIGFGDYVALQTKGALQK, the protein stability index (parent: IOH45737_33, c terminus: a fixed tail appended) was found to be 2.94.

For the protein YTGRAPNLDKMADNLLAAADKYAL, the protein stability index (parent: IOH45687_44, c terminus: a fixed tail appended) was 2.12.

For the protein ETAAGKGKGEARARLKRSQSFGVA, under “parent: IOH43320_31, c terminus: a fixed tail appended”, the protein stability index came to 4.31.

Turning to AFTMAENLANCERLIEVEDMMVMG, the protein stability index (parent: IOH43320_46, c terminus: a fixed tail appended) was determined as 2.04.

As for NWRYATGGWETVFRPVSETCTDRS, the protein stability index (parent: IOH44218_42, c terminus: a fixed tail appended) is 1.78.

With PDDKLTLFCEVSVVQDSVNISGHT, under “parent: IOH45687_26, c terminus: a fixed tail appended”, the protein stability index was 2.06.

For the protein KLLVVDRTRRLGNMKNGANDVKHH [PRKX WT], the protein stability index (parent: IOH45425_47, c terminus: a fixed tail appended) was found to be 3.15.

On to YQDMIYAVGGRDDTTELSSAERYN [KLHL20 WT], for which the protein stability index (parent: IOH45628_85, c terminus: a fixed tail appended) was determined as 2.4.

In the case of EKPPSGTKEKKHQCDHCERCFYTR, the protein stability index (parent: IOH42591_25, c terminus: a fixed tail appended) is 3.58.

As to NWLGRPSKVLSLQDLCCRTIVSCT [RAB40A WT], the protein stability index (parent: IOH45721_31, c terminus: a fixed tail appended) stood at 2.45.

In the case of DPNKMAFGCEECGKKYNTMLGYKR, the protein stability index (parent: IOH42591_15, c terminus: a fixed tail appended) was 2.34.

Turning to QKNFELAFTMAENLANCERLIEVE, the protein stability index (parent: IOH43320_45, c terminus: a fixed tail appended) turned out to be 1.84.

Take LELGSTEVLLDHLKAHAEEKPPSG: the protein stability index (parent: IOH42591_22, c terminus: a fixed tail appended) turned out to be 4.44.

As to FSDDEEDLNSKGKKREFRFHPIKE, the protein stability index (parent: IOH41890_90, c terminus: a fixed tail appended) is 2.85.

With DVAGNLDYKALSYVITHGEEKEE, the protein stability index (parent: IOH44370_26, c terminus: native) is 2.21.
